B1: LIM and senescent cell antigen-like-containing domain protein 2, residues 13 to 71; numbered along this chain, Q7Z4I7 (parent)
chain: AVCQRCQARFSPAERIVNSNGELYHEHCFVCAQCFRPFPEGLFYEFEGRKYCEHDFQML

Variants of: B1
Assay: abundance fitness (aPCA) (normalised: wild type 0, dead -1); higher = more abundant; growth selection in yeast, the domain comes from the species named
Settings: Homo sapiens

Abundance fitness of substitutions, site by site:
I16: C -0.069; D -0.267; W -0.146; V -0.194; Q -0.069; P -0.104; T 0.07; N -0.174; G -0.178; M 0.026; K 0.098; S -0.04
Q7: A 0.057; F -0.083; L 0.068; N -0.849; T 0.156; S -0.067; C -0.194; I -0.231; W 0.007; E -0.668; P -0.802; H 0.003; D -0.54; Y -0.11; G 0.05; M 0.025; V -0.121; K -0.832
A13: C -0.176; P -0.076; T 0.035; N 0.186; K 0.053; G -0.182; M -0.22; E 0.078; R -0.211; V -0.327; Y -0.207; I -0.581; D 0.142; Q -0.245; W -0.372; H 0.017; L -0.039; F -0.781
R9: N -0.135; E -0.084; P 0.051; Q 0.039; L -0.122; F -0.408; H -0.047; C -0.164; A -0.104; S 0.212; T -0.019; V -0.019; W -0.034; D -0.019; I -0.039; M -0.075; G 0.01; Y -0.292
G21: V -0.45; K -0.016; E 0.053; H -0.178; L -0.17; C -0.435; Q -0.2; W -0.752; D -0.324; P -0.457; R -0.332; Y -0.518; S -0.054; M -0.328; I -0.947; F -0.4; A -0.045; N -0.063
S11: Y -0.18; R -0.175; G -0.011; T -0.087; C -0.155; W -0.131; E 0.019; L -0.053; V -0.227; F -0.227; Q -0.075; D 0.102; N -0.105; H -0.407; K -0.055; A 0.137; M 0.004; I -0.248
R15: E 0.01; F -0.467; Y -0.153; N -0.184; D -0.009; S 0.098; I -0.017; P -0.03; M -0.069; L -0.255; G -0.144; A -0.178; V -0.107; C -0.198; T 0.037; W -0.595; Q -0.021; H -0.168; K 0.147
V17: D -0.298; M -0.248; E -0.251; N -0.147; G -0.372; W -0.492; K 0.03; P -0.727; T -0.048; F -0.019; C -0.298; Y -0.262; R -0.117; L -0.003; I 0.009; H 0.01
L23: A 0.001; Q 0.123; S -0.003; H 0.238; E -0.18; T -0.009; D -0.106; Y 0.186; R 0.017; K -0.013; N -0.076; M 0.067; P 0.027; F -0.082; W -0.168; G -0.2; C -0.185; I 0.078
H25: G -0.832; L -0.668; Q -0.987; R -0.784; A -0.918; K -0.929; P -0.752; F -0.895; D -0.96; M -0.856; I -0.972; C 0.048

From the Human Domainome abundance scans (Beltran et al. 2025)
